Values of other authors as cited in patent publication US20140378381A1 (LATITUDE PHARMACEUTICALS, INC., priority 2011, published 2014).

How the values were obtained:
[1] = after injection

## glucagon
Acidic solution (pH 2-4), 24 hours at 37° C.
  glucagon decomposed into degradation products: 5-70%
Aqueous solutions of pH 3 or less
  aggregation in aqueous solution: aggregate to form a gel within an hour
Physiological pH (pH 4-8)
  solubility in water: insoluble
[1]
  onset of action: 5 to 20 min
